# Key:
# EMTB‐CFP‐FRB [1] = molecular target: EMTB‐CFP‐FRB
# EMTB‐YFP‐CIBN [2] = molecular target: EMTB‐YFP‐CIBN (UniProt Q8GY61)
# EMTB‐YFP‐CIBN [3] = molecular target: EMTB‐YFP‐CIBN (UniProt Q8GY61); remark: listed apart in the source
# EMTB‐CFP‐FRB [4] = molecular target: EMTB‐CFP‐FRB; remark: listed apart in the source
substance,measurement,setting,value
LAMP1‐mNeon‐FKBP,motility of LAMP1-labelled lysosomes slowed after rapamycin (half time of the slowing),EMTB‐CFP‐FRB [1],11 s
TGN38‐mNeon‐FKBP,motility of post-Golgi vesicles halted after rapamycin 100 nM (half time),EMTB‐CFP‐FRB [1],9 s
mCh‐Cry2‐VAMP2,immobilisation of VAMP2-labelled vesicles under blue light (half time on),EMTB‐YFP‐CIBN [2],7 s
same,return of VAMP2 vesicle mobility after blue light (half time off),EMTB‐YFP‐CIBN [2],68.1 s
mNeon‐FKBP‐Rab11b,motility of recycling endosomes halted after rapamycin 100 nM (half time),EMTB‐CFP‐FRB [1],12.5 s
mNeon‐FKBP‐Rab37,motility of exocytic vesicles halted after rapamycin 100 nM (half time),EMTB‐CFP‐FRB [1],12.3 s
mNeon‐FKBP‐IFT88,movement of IFT88 particles along axonemes in cilia of NIH3T3 cells after rapamycin 100 nM,CFP‐FRB‐MAP4m,20 s
LAMP1‐mCh‐Cry2,immobilisation of LAMP1-labelled lysosomes under blue light (half time on),EMTB‐YFP‐CIBN [3],6.2 s
same,return of lysosome mobility after the end of blue light (half time off),EMTB‐YFP‐CIBN [3],68.8 s
mNeon‐FKBP‐Rab5b,motility of endosomes halted after rapamycin 100 nM (half time),EMTB‐CFP‐FRB [1],11.8 s
mNeon‐FKBP‐VAMP2,immobilisation of VAMP2-labelled vesicles in COS7 cells after rapamycin 100 nM (half time),EMTB‐CFP‐FRB [4],19.2 s
same,immobilisation of VAMP2-labelled vesicles in primary culture cortical neurons after rapamycin 100 nM (half time),EMTB‐CFP‐FRB [4],13.6 s
ACE2‐mNeon‐FKBP,"internalisation of SARS-CoV2 spike‐Alexa Fluor 647 into ACE2-positive HeLa cells after 2 h, rapamycin 100 nM against DMSO",LifeAct‐CFP‐FRB,89%

# Reference: PMC11615828
